# Laboratory results published in patent publication US20160264649A1.
# Tests used:
# Assay in all cases: cell-based or functional assay
# [1] = target: HIV-1 JRCSF Env on pseudovirus (HIV-1) (UniProt P20871)
# [2] = target: HIV-1 MGRM-F1-021 Env (HIV-1)
# [3] = target: HIV-1 LAVIC_18 Env on pseudovirus (HIV-1)
# [4] = target: HIV-1 MGRM-F1-012 Env (HIV-1)
# [5] = target: HIV-1 MGRM-AG-008 Env (HIV-1)
# [6] = target: HIV-1 MGRM-AG-009 Env (HIV-1)
# [7] = target: HIV-1 92UG024 Env (HIV-1)
# [8] = target: HIV-1 MGRM-AE-004 Env (HIV-1)
# [9] = target: HIV-1 MGRM-D-016 Env (HIV-1)
# [10] = target: HIV-1 MGRM-C-024 Env on pseudovirus (HIV-1)
# [11] = target: HIV-1 MGRM-C-005 Env on pseudovirus (HIV-1)
# [12] = target: HIV-1 JRFL Env on pseudovirus (HIV-1)
# [13] = target: HIV-1 MGRM-AE-001 Env (HIV-1)
# [14] = target: HIV-1 MGRM-G-019 Env (HIV-1)
# [15] = target: HIV-1 MGRM-Chronic-B-003 Env on pseudovirus (HIV-1)
# [16] = target: HIV-1 MGRM-F1-004 Env (HIV-1)
# [17] = target: HIV-1 MGRM-AG-001 Env (HIV-1)
# [18] = target: HIV-1 MGRM-D-026 Env (HIV-1)
# [19] = target: HIV-1 TRO.11 (Acute) Env on pseudovirus (HIV-1)
# [20] = target: HIV-1 MGRM-Chronic-B-023 Env on pseudovirus (HIV-1)
# [21] = target: HIV-1 93UG077 Env (HIV-1)
# [22] = target: HIV-1 MGRM-F1-016 Env (HIV-1)
# [23] = target: HIV-1 MGRM-D-001 Env (HIV-1)
# HIV-1 APV-6 Env (HIV-1) = target: HIV-1 APV-6 Env (HIV-1)
# [24] = target: HIV-1 MGRM-Chronic-B-012 Env on pseudovirus (HIV-1)
# [25] = target: HIV-1 PVO.4 (Acute) Env on pseudovirus (HIV-1)
# [26] = target: HIV-1 MGRM-C-020 Env on pseudovirus (HIV-1)
# [27] = target: HIV-1 MGRM-D-008 Env (HIV-1)
# HIV-1 NL43 Env (HIV-1) = target: HIV-1 NL43 Env (HIV-1)
# [28] = target: HIV-1 MGRM-AE-007 Env (HIV-1)
# [29] = target: HIV-1 MGRM-C-007 Env on pseudovirus (HIV-1)
# [30] = target: HIV-1 MGRM-G-015 Env (HIV-1)
# [31] = target: HIV-1 SC422661.8 (Acute) Env on pseudovirus (HIV-1)
# [32] = target: HIV-1 93IN905 Env on pseudovirus (HIV-1)
# [33] = target: HIV-1 MGRM-AE-002 Env (HIV-1)
# [34] = target: HIV-1 MGRM-D-018 Env (HIV-1)
# [35] = target: HIV-1 MGRM-C-017 Env on pseudovirus (HIV-1)
# [36] = target: HIV-1 MGRM-G-006 Env (HIV-1)
# [37] = target: HIV-1 98CN006 Env on pseudovirus (HIV-1)
# [38] = target: HIV-1 93IN905 Env (HIV-1)
# [39] = target: HIV-1 MGRM-G-001 Env (HIV-1)
# [40] = target: HIV-1 THR0.18 (Acute) Env on pseudovirus (HIV-1)
# [41] = target: HIV-1 MGRM-Chronic-B-011 Env on pseudovirus (HIV-1)
# [42] = target: HIV-1 93TH305 Env on pseudovirus (HIV-1)
# [43] = target: HIV-1 IAVI-C22 Env (HIV-1)
# [44] = target: HIV-1 MGRM-Chronic-B-010 Env on pseudovirus (HIV-1)
# [45] = target: HIV-1 MGRM-F1-006 Env (HIV-1)
# [46] = target: HIV-1 92RW020 Env (HIV-1)
# [47] = target: aMLV envelope (negative control pseudovirus)
# [48] = target: HIV-1 MGRM-C-004 Env on pseudovirus (HIV-1)
# [49] = target: HIV-1 MGRM-G-017 Env (HIV-1)
# 1443_C16 (PG16) (TCN-116) (antibody), sequence (VH): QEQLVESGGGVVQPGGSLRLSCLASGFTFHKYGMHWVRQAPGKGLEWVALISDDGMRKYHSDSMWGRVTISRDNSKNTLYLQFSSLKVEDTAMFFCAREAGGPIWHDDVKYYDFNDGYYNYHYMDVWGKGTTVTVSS
# 1443_C16 (PG16) (TCN-116) (antibody), sequence (VL): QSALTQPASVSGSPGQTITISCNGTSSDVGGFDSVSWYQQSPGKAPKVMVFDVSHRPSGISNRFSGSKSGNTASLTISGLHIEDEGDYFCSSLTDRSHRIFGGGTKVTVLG
substance,measurement,setting,value
1443_C16 (PG16) (TCN-116) (antibody),IC50,[1],0.001 µg/mL
same,IC50 (pseudovirus neutralization),[2],> 50 µg/mL
same,IC50,[3],0.02 µg/mL
same,IC50 (pseudovirus neutralization),[4],0.003 µg/mL
same,"IC50 (µg/ml), pseudovirus neutralization",[5],0.002 µg/mL
same,"IC50 (µg/ml), pseudovirus neutralization",[6],> 50 µg/mL
same,"IC50 (µg/ml), pseudovirus neutralization",[7],24 µg/mL
same,neutralization IC50,[7],> 50 µg/mL
same,neutralization IC90,[7],> 50 µg/mL
same,"IC50 (µg/ml), pseudovirus neutralization",[8],0.002 µg/mL
same,"IC50 (µg/ml), pseudovirus neutralization",[9],0.02 µg/mL
same,IC50,[10],0.04 µg/mL
same,IC50,[11],2.55 µg/mL
same,IC50,[12],> 50 µg/mL
same,"IC50 (µg/ml), pseudovirus neutralization",[13],4.33 µg/mL
same,"IC50 (µg/ml), pseudovirus neutralization",[14],1.21 µg/mL
same,IC50,[15],0.19 µg/mL
same,IC50 (pseudovirus neutralization),[16],0.43 µg/mL
same,"IC50 (µg/ml), pseudovirus neutralization",[17],0.03 µg/mL
same,"IC50 (µg/ml), pseudovirus neutralization",[18],> 50 µg/mL
same,IC50,[19],0.22 µg/mL
same,IC50,[20],0.13 µg/mL
same,neutralization IC50,[21],> 50 µg/mL
same,neutralization IC90,[21],> 50 µg/mL
same,IC50 (pseudovirus neutralization),[22],1.12 µg/mL
same,"IC50 (µg/ml), pseudovirus neutralization",[23],> 50 µg/mL
same,neutralization IC50,HIV-1 APV-6 Env (HIV-1),0.08 µg/mL
same,neutralization IC90,HIV-1 APV-6 Env (HIV-1),44.3 µg/mL
same,IC50,[24],3.74 µg/mL
same,IC50,[25],5.43 µg/mL
same,IC50,[26],> 50 µg/mL
same,"IC50 (µg/ml), pseudovirus neutralization",[27],> 50 µg/mL
same,neutralization IC50,HIV-1 NL43 Env (HIV-1),< 0.0025 µg/mL
same,neutralization IC90,HIV-1 NL43 Env (HIV-1),> 50 µg/mL
same,"IC50 (µg/ml), pseudovirus neutralization",[28],0.04 µg/mL
same,IC50,[29],0.05 µg/mL
same,"IC50 (µg/ml), pseudovirus neutralization",[30],5.33 µg/mL
same,IC50,[31],1.13 µg/mL
same,IC50,[32],0.25 µg/mL
same,"IC50 (µg/ml), pseudovirus neutralization",[33],0.01 µg/mL
same,"IC50 (µg/ml), pseudovirus neutralization",[34],0.004 µg/mL
same,IC50,[35],1.8 µg/mL
same,"IC50 (µg/ml), pseudovirus neutralization",[36],2.42 µg/mL
same,IC50,[37],> 50 µg/mL
same,neutralization IC50,[38],0.102 µg/mL
same,neutralization IC90,[38],> 50 µg/mL
same,"IC50 (µg/ml), pseudovirus neutralization",[39],0.15 µg/mL
same,IC50,[40],1.34 µg/mL
same,IC50,[41],> 50 µg/mL
same,IC50,[42],19.3 µg/mL
same,neutralization IC50,[43],0.0687 µg/mL
same,neutralization IC90,[43],> 50 µg/mL
same,IC50,[44],0.01 µg/mL
same,IC50 (pseudovirus neutralization),[45],0.27 µg/mL
same,"IC50, TZM-bl pseudovirus neutralization",[46],0.09 µg/mL
same,neutralization IC50,[46],0.004 µg/mL
same,neutralization IC90,[46],> 50 µg/mL
same,IC50 (pseudovirus neutralization),[47],> 50 µg/mL
same,IC50,[48],5.09 µg/mL
same,"IC50 (µg/ml), pseudovirus neutralization",[49],0.02 µg/mL
1495_C14 (PGC14) (antibody),IC50,[1],15 µg/mL
same,IC50 (pseudovirus neutralization),[2],46 µg/mL
same,IC50,[3],> 50 µg/mL
same,IC50 (pseudovirus neutralization),[4],> 50 µg/mL
same,"IC50 (µg/ml), pseudovirus neutralization",[5],45 µg/mL
same,"IC50 (µg/ml), pseudovirus neutralization",[6],> 50 µg/mL
same,"IC50 (µg/ml), pseudovirus neutralization",[7],> 50 µg/mL
same,neutralization IC50,[7],> 50 µg/mL
same,"IC50 (µg/ml), pseudovirus neutralization",[8],> 50 µg/mL
same,"IC50 (µg/ml), pseudovirus neutralization",[9],> 50 µg/mL
same,IC50,[10],> 50 µg/mL
same,IC50,[11],> 50 µg/mL
same,IC50,[12],> 50 µg/mL
same,"IC50 (µg/ml), pseudovirus neutralization",[13],> 50 µg/mL
same,"IC50 (µg/ml), pseudovirus neutralization",[14],> 50 µg/mL
same,IC50,[15],> 50 µg/mL
same,IC50 (pseudovirus neutralization),[16],> 50 µg/mL
same,"IC50 (µg/ml), pseudovirus neutralization",[17],> 50 µg/mL
same,"IC50 (µg/ml), pseudovirus neutralization",[18],> 50 µg/mL
same,IC50,[19],> 50 µg/mL
same,IC50,[20],> 50 µg/mL
same,neutralization IC50,[21],> 50 µg/mL
same,IC50 (pseudovirus neutralization),[22],> 50 µg/mL
same,"IC50 (µg/ml), pseudovirus neutralization",[23],> 50 µg/mL
same,neutralization IC50,HIV-1 APV-6 Env (HIV-1),7.41 µg/mL
same,IC50,[24],> 50 µg/mL
same,IC50,[25],> 50 µg/mL
same,IC50,[26],> 50 µg/mL
same,"IC50 (µg/ml), pseudovirus neutralization",[27],> 50 µg/mL
same,neutralization IC50,HIV-1 NL43 Env (HIV-1),0.373 µg/mL
same,"IC50 (µg/ml), pseudovirus neutralization",[28],> 50 µg/mL
same,IC50,[29],> 50 µg/mL
same,"IC50 (µg/ml), pseudovirus neutralization",[30],> 50 µg/mL
same,IC50,[31],> 50 µg/mL
same,IC50,[32],19 µg/mL
same,"IC50 (µg/ml), pseudovirus neutralization",[33],> 50 µg/mL
same,"IC50 (µg/ml), pseudovirus neutralization",[34],> 50 µg/mL
same,IC50,[35],> 50 µg/mL
same,"IC50 (µg/ml), pseudovirus neutralization",[36],> 50 µg/mL
same,IC50,[37],> 50 µg/mL
same,neutralization IC50,[38],> 50 µg/mL
same,"IC50 (µg/ml), pseudovirus neutralization",[39],> 50 µg/mL
same,IC50,[40],> 50 µg/mL
same,IC50,[41],> 50 µg/mL
same,IC50,[42],6 µg/mL
same,neutralization IC50,[43],9.5 µg/mL
same,IC50,[44],27 µg/mL
same,IC50 (pseudovirus neutralization),[45],> 50 µg/mL
same,neutralization IC50,[46],28.6 µg/mL
same,IC50 (pseudovirus neutralization),[47],> 50 µg/mL
same,IC50,[48],> 50 µg/mL
same,"IC50 (µg/ml), pseudovirus neutralization",[49],> 50 µg/mL
